Results reported in article PMC9482650, “Quantitative fragmentomics allow affinity mapping of interactomes” (Nature Communications, 2022).

How the values were obtained:
Experiment in all cases: holdup assay
Parameters in all cases: key: below the threshold = too weak to quantify, mostly under pKd 3.1 to 4
AHNAK1, Q09666 = molecular target: AHNAK1, Q09666
Inadl_1, Q8NI35 = molecular target: Inadl_1, Q8NI35
LIN7C, Q9NUP9 = molecular target: T1, LIN7C, Q9NUP9
T1 sequence (Q9NUP9 88-185, limits assumed, looked up): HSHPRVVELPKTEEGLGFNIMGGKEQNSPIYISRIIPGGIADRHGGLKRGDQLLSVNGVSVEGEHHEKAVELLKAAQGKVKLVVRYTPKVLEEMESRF

APBA1_1, Q02410 = molecular target: T2, APBA1_1, Q02410
T2 sequence (Q02410 651-752, limits assumed, looked up): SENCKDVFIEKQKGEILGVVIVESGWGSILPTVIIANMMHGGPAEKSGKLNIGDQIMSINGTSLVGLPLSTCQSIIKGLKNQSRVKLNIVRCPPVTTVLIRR

MAGI3_2, Q5TCQ9 = molecular target: MAGI3_2, Q5TCQ9
Chain of MAGI3_2, Q5TCQ9 (Q5TCQ9 398-503): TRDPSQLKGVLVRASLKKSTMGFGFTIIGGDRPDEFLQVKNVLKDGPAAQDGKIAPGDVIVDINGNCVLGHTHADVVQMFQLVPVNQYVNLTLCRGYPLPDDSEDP

ARHGEF12, Q9NZN5-2 = molecular target: ARHGEF12, Q9NZN5-2
Chain of ARHGEF12, Q9NZN5-2 (Q9NZN5 other isoform, or with tags, fused parts or gaps): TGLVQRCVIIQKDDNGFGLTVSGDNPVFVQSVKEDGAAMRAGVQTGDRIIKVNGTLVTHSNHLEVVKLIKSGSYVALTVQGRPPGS

NHERF2_2, Q15599 = molecular target: NHERF2_2, Q15599
Chain of NHERF2_2, Q15599 (Q15599 142-238): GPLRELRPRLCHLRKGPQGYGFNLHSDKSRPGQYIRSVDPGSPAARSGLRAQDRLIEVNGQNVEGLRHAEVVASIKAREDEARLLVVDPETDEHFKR

LIN7B, Q9HAP6 = molecular target: T3, LIN7B, Q9HAP6
T3 sequence (Q9HAP6 88-185, limits assumed, looked up): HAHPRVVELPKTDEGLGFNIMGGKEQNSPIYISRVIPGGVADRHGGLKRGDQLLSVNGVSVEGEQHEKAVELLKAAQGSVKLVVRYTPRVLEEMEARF

TJP3_3, O95049 = molecular target: T4, TJP3_3, O95049
T4 sequence (O95049 375-456, limits assumed, looked up): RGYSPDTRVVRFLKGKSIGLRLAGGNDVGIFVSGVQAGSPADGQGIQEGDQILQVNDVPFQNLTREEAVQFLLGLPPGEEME

GRIP1_7, Q9Y3R0 = molecular target: T5, GRIP1_7, Q9Y3R0
T5 sequence (Q9Y3R0 999-1096, limits assumed, looked up): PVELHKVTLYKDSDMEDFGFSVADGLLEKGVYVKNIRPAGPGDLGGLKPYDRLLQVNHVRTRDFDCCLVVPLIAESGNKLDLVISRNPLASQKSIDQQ

MAGI2_5, Q86UL8 = molecular target: MAGI2_5, Q86UL8
Chain of MAGI2_5, Q86UL8 (Q86UL8 915-1017): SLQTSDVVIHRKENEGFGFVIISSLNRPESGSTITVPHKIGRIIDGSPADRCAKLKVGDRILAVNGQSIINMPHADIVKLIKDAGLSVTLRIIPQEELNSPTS

MAST1, Q9Y2H9 = molecular target: MAST1, Q9Y2H9
Chain of MAST1, Q9Y2H9 (Q9Y2H9 962-1065): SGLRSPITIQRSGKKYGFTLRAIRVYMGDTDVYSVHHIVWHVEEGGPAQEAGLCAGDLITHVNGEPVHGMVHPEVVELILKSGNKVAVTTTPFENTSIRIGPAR

TJP1_2, Q07157 = molecular target: TJP1_2, Q07157
Chain of TJP1_2, Q07157 (Q07157 181-274): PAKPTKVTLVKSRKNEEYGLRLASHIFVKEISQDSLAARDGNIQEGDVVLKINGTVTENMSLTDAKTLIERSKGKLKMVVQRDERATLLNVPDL

SCRIB_3, Q14160 = molecular target: SCRIB_3, Q14160
Chain of SCRIB_3, Q14160 (Q14160 999-1103): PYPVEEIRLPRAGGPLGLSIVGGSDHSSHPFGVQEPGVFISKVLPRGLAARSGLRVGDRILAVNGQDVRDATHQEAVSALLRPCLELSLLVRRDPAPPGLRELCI

Inadl_8, Q8NI35 = molecular target: Inadl_8, Q8NI35
Chain of Inadl_8, Q8NI35 (Q8NI35 1425-1530): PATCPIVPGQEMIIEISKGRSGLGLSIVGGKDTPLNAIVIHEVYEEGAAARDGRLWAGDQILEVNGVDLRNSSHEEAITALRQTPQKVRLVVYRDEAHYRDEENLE

SCRIB_1, Q14160 = molecular target: SCRIB_1, Q14160
Chain of SCRIB_1, Q14160 (Q14160 718-814): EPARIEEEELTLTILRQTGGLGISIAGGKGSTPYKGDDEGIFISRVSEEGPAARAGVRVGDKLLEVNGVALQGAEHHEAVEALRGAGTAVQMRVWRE

SNX27, Q96L92 = molecular target: SNX27, Q96L92
HTRA2, O43464 = molecular target: HTRA2, O43464
Chain of HTRA2, O43464 (O43464 355-458): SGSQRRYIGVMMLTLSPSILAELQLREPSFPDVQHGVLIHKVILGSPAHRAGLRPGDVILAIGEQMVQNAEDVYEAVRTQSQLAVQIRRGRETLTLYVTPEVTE

CASK, O14936 = molecular target: CASK, O14936
Chain of CASK, O14936 (O14936 487-570): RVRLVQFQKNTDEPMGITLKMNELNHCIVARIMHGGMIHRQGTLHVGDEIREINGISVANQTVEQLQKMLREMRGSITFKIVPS

PDLIM1, O00151 = molecular target: PDLIM1, O00151
Chain of PDLIM1, O00151 (O00151 1-87): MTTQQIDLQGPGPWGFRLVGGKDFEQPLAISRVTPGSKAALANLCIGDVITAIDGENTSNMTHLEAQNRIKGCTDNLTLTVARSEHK

LNX1_1, Q8TBB1 = molecular target: LNX1_1, Q8TBB1
Chain of LNX1_1, Q8TBB1 (Q8TBB1 261-371): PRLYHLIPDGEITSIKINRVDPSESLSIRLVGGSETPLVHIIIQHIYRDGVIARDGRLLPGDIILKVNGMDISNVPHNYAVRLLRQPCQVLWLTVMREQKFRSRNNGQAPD

PTPN3, P26045 = molecular target: PTPN3, P26045
Chain of PTPN3, P26045 (P26045 505-587): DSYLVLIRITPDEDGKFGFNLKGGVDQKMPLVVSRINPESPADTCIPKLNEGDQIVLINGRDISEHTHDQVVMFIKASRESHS

SCRIB_2, Q14160 = molecular target: SCRIB_2, Q14160
Chain of SCRIB_2, Q14160 (Q14160 857-960): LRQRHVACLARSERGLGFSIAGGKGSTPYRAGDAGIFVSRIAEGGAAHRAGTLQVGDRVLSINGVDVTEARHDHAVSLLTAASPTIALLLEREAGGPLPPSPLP

GORASP1, Q9BQQ3 = molecular target: GORASP1, Q9BQQ3
Chain of GORASP1, Q9BQQ3 (Q9BQQ3 1-208): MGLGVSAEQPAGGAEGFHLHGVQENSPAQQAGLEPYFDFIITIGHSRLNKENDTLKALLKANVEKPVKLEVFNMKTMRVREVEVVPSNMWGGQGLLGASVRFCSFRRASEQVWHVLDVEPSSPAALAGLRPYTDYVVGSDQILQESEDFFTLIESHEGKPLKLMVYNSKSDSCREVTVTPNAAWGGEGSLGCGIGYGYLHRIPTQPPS

GRIP1_2, Q9Y3R0 = molecular target: T6, GRIP1_2, Q9Y3R0
T6 sequence (Q9Y3R0 145-248, limits assumed, looked up): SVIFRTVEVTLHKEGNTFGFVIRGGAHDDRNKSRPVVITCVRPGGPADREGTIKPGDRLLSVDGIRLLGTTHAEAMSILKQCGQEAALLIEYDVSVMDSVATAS

NHERF4_1, Q86UT5-2 = molecular target: NHERF4_1, Q86UT5-2
Chain of NHERF4_1, Q86UT5-2 (Q86UT5 other isoform, or with tags, fused parts or gaps): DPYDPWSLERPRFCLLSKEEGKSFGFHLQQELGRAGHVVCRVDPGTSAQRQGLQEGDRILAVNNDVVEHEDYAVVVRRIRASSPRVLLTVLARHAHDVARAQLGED

MAGI2_3, Q86UL8 = molecular target: MAGI2_3, Q86UL8
Chain of MAGI2_3, Q86UL8 (Q86UL8 600-682): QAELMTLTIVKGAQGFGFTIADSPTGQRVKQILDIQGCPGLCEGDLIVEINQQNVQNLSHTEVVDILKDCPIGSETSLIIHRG

DLG3_3, Q92796 = molecular target: T7, DLG3_3, Q92796
T7 sequence (Q92796 374-475, limits assumed, looked up): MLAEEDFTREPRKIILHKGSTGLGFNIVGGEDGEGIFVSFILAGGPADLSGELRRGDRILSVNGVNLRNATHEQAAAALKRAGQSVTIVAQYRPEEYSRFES

MAST2, Q6P0Q8 = molecular target: MAST2, Q6P0Q8
Chain of MAST2, Q6P0Q8 (Q6P0Q8 1099-1202): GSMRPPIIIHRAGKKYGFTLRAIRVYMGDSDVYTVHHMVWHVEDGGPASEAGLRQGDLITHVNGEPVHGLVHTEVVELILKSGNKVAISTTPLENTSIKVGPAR

SNTG2, Q9NY99 = molecular target: T8, SNTG2, Q9NY99
T8 sequence (Q9NY99 68-166, limits assumed, looked up): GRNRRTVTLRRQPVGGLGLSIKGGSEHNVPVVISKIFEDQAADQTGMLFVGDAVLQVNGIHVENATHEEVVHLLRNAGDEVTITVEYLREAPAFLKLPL

PARD3_3, Q8TEW0 = molecular target: PARD3_3, Q8TEW0
Chain of PARD3_3, Q8TEW0 (Q8TEW0 582-685): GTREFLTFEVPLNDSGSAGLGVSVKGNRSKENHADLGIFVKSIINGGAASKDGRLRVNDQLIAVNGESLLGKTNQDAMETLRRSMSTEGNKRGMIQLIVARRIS

[1] = plain residues with an end cap or a label only (N-terminal biotin on a linker: ahx)
[2] = plain residues with an end cap or a label only (N-terminal biotin on a linker: ado-ado)

Chain of Inadl_1, Q8NI35 (Q8NI35 113-229): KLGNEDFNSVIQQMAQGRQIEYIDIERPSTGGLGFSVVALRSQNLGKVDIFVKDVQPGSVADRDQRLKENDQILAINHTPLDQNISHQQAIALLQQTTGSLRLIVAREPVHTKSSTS
Chain of AHNAK1, Q09666 (Q09666 4-100): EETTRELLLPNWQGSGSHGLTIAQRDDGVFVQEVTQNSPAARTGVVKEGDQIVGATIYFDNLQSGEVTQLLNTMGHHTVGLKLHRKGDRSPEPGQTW

## NRKREIFSNF [NHERF2, Q15599]
AHNAK1, Q09666; [1]
  pKd: below the threshold
Inadl_1, Q8NI35; [1]
  pKd: below the threshold
LIN7C, Q9NUP9; [1]
  pKd: below the threshold
APBA1_1, Q02410; [1]
  pKd: below the threshold
MAGI3_2, Q5TCQ9; [1]
  pKd: below the threshold
ARHGEF12, Q9NZN5-2; [1]
  pKd: below the threshold
NHERF2_2, Q15599; [1]
  pKd: below the threshold
LIN7B, Q9HAP6; [1]
  pKd: below the threshold
TJP3_3, O95049; [1]
  pKd: below the threshold
GRIP1_7, Q9Y3R0; [1]
  pKd: below the threshold
MAGI2_5, Q86UL8; [1]
  pKd: below the threshold
MAST1, Q9Y2H9; [1]
  pKd: below the threshold
TJP1_2, Q07157; [1]
  pKd: below the threshold
SCRIB_3, Q14160; [1]
  pKd: below the threshold
Inadl_8, Q8NI35; [1]
  pKd: below the threshold
SCRIB_1, Q14160; [1]
  pKd: below the threshold
SNX27, Q96L92; [1]
  pKd: below the threshold
HTRA2, O43464; [1]
  pKd: below the threshold
CASK, O14936; [1]
  pKd: below the threshold
PDLIM1, O00151; [1]
  pKd: below the threshold
LNX1_1, Q8TBB1; [1]
  pKd: below the threshold
PTPN3, P26045; [1]
  pKd: below the threshold
SCRIB_2, Q14160; [1]
  pKd: below the threshold
GORASP1, Q9BQQ3; [1]
  pKd: below the threshold
GRIP1_2, Q9Y3R0; [1]
  pKd: below the threshold
NHERF4_1, Q86UT5-2; [1]
  pKd: below the threshold
MAGI2_3, Q86UL8; [1]
  pKd: below the threshold
DLG3_3, Q92796; [1]
  pKd: below the threshold
MAST2, Q6P0Q8; [1]
  pKd: 3.89
SNTG2, Q9NY99; [1]
  pKd: below the threshold
PARD3_3, Q8TEW0; [1]
  pKd: below the threshold

## RRRKRKRTYL [HPV49-L2, P36762]
AHNAK1, Q09666; [1]
  pKd: 3.56
Inadl_1, Q8NI35; [1]
  pKd: below the threshold
LIN7C, Q9NUP9; [1]
  pKd: below the threshold
APBA1_1, Q02410; [1]
  pKd: 3.71
MAGI3_2, Q5TCQ9; [1]
  pKd: 5.4
ARHGEF12, Q9NZN5-2; [1]
  pKd: 4.68
NHERF2_2, Q15599; [1]
  pKd: 3.49
LIN7B, Q9HAP6; [1]
  pKd: below the threshold
TJP3_3, O95049; [1]
  pKd: below the threshold
GRIP1_7, Q9Y3R0; [1]
  pKd: 3.54
MAGI2_5, Q86UL8; [1]
  pKd: below the threshold
MAST1, Q9Y2H9; [1]
  pKd: 4.21
TJP1_2, Q07157; [1]
  pKd: 3.49
SCRIB_3, Q14160; [1]
  pKd: 3.75
Inadl_8, Q8NI35; [1]
  pKd: 4.11
SCRIB_1, Q14160; [1]
  pKd: 3.67
SNX27, Q96L92; [1]
  pKd: below the threshold
HTRA2, O43464; [1]
  pKd: 3.49
CASK, O14936; [1]
  pKd: below the threshold
PDLIM1, O00151; [1]
  pKd: 3.52
LNX1_1, Q8TBB1; [1]
  pKd: 3.63
PTPN3, P26045; [1]
  pKd: 3.72
SCRIB_2, Q14160; [1]
  pKd: below the threshold
GORASP1, Q9BQQ3; [1]
  pKd: 4.65
GRIP1_2, Q9Y3R0; [1]
  pKd: below the threshold
NHERF4_1, Q86UT5-2; [1]
  pKd: 4.69
MAGI2_3, Q86UL8; [1]
  pKd: below the threshold
DLG3_3, Q92796; [1]
  pKd: 4.28
MAST2, Q6P0Q8; [1]
  pKd: 4.22
SNTG2, Q9NY99; [1]
  pKd: 3.57
PARD3_3, Q8TEW0; [1]
  pKd: below the threshold

## PLSPEQPTKL [TRIM50, Q86XT4]
AHNAK1, Q09666; [2]
  pKd: below the threshold
Inadl_1, Q8NI35; [2]
  pKd: below the threshold
LIN7C, Q9NUP9; [2]
  pKd: 3.82
APBA1_1, Q02410; [2]
  pKd: below the threshold
MAGI3_2, Q5TCQ9; [2]
  pKd: below the threshold
ARHGEF12, Q9NZN5-2; [2]
  pKd: below the threshold
NHERF2_2, Q15599; [2]
  pKd: 3.86
LIN7B, Q9HAP6; [2]
  pKd: below the threshold
TJP3_3, O95049; [2]
  pKd: below the threshold
GRIP1_7, Q9Y3R0; [2]
  pKd: below the threshold
MAGI2_5, Q86UL8; [2]
  pKd: below the threshold
MAST1, Q9Y2H9; [2]
  pKd: 3.97
TJP1_2, Q07157; [2]
  pKd: below the threshold
SCRIB_3, Q14160; [2]
  pKd: below the threshold
Inadl_8, Q8NI35; [2]
  pKd: below the threshold
SCRIB_1, Q14160; [2]
  pKd: below the threshold
SNX27, Q96L92; [2]
  pKd: below the threshold
HTRA2, O43464; [2]
  pKd: below the threshold
CASK, O14936; [2]
  pKd: below the threshold
PDLIM1, O00151; [2]
  pKd: below the threshold
LNX1_1, Q8TBB1; [2]
  pKd: below the threshold
PTPN3, P26045; [2]
  pKd: below the threshold
SCRIB_2, Q14160; [2]
  pKd: below the threshold
GORASP1, Q9BQQ3; [2]
  pKd: below the threshold
GRIP1_2, Q9Y3R0; [2]
  pKd: below the threshold
NHERF4_1, Q86UT5-2; [2]
  pKd: 3.98
MAGI2_3, Q86UL8; [2]
  pKd: below the threshold
DLG3_3, Q92796; [2]
  pKd: below the threshold
MAST2, Q6P0Q8; [2]
  pKd: 4.73
SNTG2, Q9NY99; [2]
  pKd: below the threshold
PARD3_3, Q8TEW0; [2]
  pKd: below the threshold
